Data on four molecules can be found in US20230174617A1 (PROGEN, published 2023).

The target in one assay is T1, complement C1q (UniProt P02745 23-245; P02746 28-253; P02747 29-245).
T1 construct: the method text names a C1q-HRP conjugate; also called C1q-HRP conjugate
Nature of the assay: ELISA, PG-11 coated at 2 µg/ml, C1q in varied concentration, OD 450 nm.

Assay [1] addresses T2, recombinant human neonatal Fc receptor (rhFcRn, R&D systems) (human, UniProt P55899 24-297; P61769 21-119).
T2 construct: Bought reagent; also called recombinant FcRn
Kind of assay: SPR, rhFcRn on CM5, analyte in PBST pH 6.0, steady state affinity. From the text:
(§1) During the regeneration, a PBS buffer solution having a pH of 7.4 was used.
In general terms: In SPR one partner is held on a chip, and binding of the other changes the refractive index at the surface.

In assay [2] the target is T3, Fc gamma receptor IIIa (FcγRIIIa) (UniProt P08637 17-208, limits assumed).
T3 construct: also called FcγR3a
T3 sequence (P08637 17-208 limits assumed): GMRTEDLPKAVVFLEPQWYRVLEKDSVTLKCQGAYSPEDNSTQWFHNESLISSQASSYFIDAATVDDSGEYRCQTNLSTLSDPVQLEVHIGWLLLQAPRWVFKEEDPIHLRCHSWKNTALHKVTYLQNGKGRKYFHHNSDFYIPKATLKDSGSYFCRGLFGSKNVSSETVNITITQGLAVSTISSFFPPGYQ
Nature of the assay: BLI; concentrations and the immobilised partner are not given.

The target of assay [3] is T4, Fc gamma receptor I (FcγRI) (UniProt P12314 16-288, limits assumed).
T4 construct: also called FcγR1
T4 sequence (P12314 16-288 limits assumed): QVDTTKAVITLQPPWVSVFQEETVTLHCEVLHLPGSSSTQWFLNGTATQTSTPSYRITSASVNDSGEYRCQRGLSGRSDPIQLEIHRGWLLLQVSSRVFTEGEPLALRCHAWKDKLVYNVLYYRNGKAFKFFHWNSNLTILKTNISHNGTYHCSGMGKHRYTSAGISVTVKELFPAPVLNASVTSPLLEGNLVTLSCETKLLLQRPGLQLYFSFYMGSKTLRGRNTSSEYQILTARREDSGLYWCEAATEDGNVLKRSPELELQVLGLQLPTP
Described as above.

The target in assay [4] is T2, recombinant human neonatal Fc receptor …. Nature of the assay: SPR, steady state affinity, rhFcRn on chip, pH 6.0. On the procedure: (§2) As the analyzer, Biocore 8K (GE Healthcare, USA) was used, and all reagents used in the analysis were purchased from GE Healthcare. […] The experiment was performed at a flow rate of 30 μl/min at 25° C., an association of an analyte was performed for 60 seconds, and then dissociation was performed for 60 seconds. […] At this time, the buffer solution was replaced with a PBS buffer solution having a pH of 7.4 during regeneration.
as §1

A further assay addresses FcγRIIIb (UniProt O75015 17-200, limits assumed). Nature of the assay: BLI, single trace with fit; PBS panel as control.
Another assay deals with T5, FcγRIIb (UniProt P31994 46-217, limits assumed).
T5 sequence (looked up): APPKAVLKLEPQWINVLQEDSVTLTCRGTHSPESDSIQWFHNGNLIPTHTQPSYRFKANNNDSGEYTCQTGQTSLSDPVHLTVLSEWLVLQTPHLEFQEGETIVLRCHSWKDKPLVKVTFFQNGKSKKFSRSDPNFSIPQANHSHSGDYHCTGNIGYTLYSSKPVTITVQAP
Nature of the assay: BLI, single trace with fit; PBS panel as control.

The next assay deals with T6, FcγRIIa (UniProt P12318 36-218, limits assumed).
T6 sequence (looked up): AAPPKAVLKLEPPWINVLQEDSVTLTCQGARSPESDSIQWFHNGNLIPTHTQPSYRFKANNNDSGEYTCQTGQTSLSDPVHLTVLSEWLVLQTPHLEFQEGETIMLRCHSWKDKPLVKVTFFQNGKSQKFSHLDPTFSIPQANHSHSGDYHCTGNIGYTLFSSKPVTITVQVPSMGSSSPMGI
Nature of the assay: BLI, single trace with fit; PBS panel as control.

Assay [5] has as its target T2, recombinant human neonatal Fc receptor …. Kind of assay: SPR (Biacore 8K), rhFcRn amine-coupled on CM5, analyte in PBST pH 6.0, steady state affinity. Here is the method: as §2
The target in assay [6] is T7, IL-10 receptor 1 (IL-10R1), IL-10R His-tag protein (UniProt Q13651 22-235, limits assumed).
T7 construct: not shown: His tag
T7 sequence (looked up): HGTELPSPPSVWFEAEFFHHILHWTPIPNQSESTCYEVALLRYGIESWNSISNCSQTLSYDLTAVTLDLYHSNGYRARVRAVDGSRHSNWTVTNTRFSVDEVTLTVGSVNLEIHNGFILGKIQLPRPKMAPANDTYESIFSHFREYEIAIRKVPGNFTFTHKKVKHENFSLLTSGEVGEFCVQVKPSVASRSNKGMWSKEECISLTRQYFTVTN
Kind of assay: BLI (Octet K2), IL-10R His-tag protein on AR2G sensor. On the procedure: (§3) For the analysis, the present inventors attached an IL-10R His-tag protein to a 96-well plate using a Dip and Read™ Amine Reactive 2nd Generation (AR2G) Reagent Kit (forteBio, Cat No. 18-5092). Specifically, 200 μl of D. W. was dispensed into a 96-well plate, and an amine biosensor included in the kit was inserted to perform hydration for 10 minutes. Subsequently, after 200 μl of D. W. was additionally dispensed into a new 96-well plate, EDC and NHS were mixed at 1:1 in an amount of 1/20 of the required sample amount and then diluted with D. W., and 200 μl of the resultant was dispensed into the 96-well plates. Next, the IL-10R His-tag protein was diluted to 10 μg/ml in a 10 mM acetate solution having a pH of 5.0, and then 200 μl of the resultant was added to the 96-well plates. After 200 μl of 1 M ethanolamine was added to the 96-well plates, the biosensor plate and the sample plate were placed in an Octet®-K2 instrument and measured. After the measurement was completed, 200 μl of a 1× kinetics buffer solution was added to the sample plate, and then a baseline was determined.
In general terms: BLI is a label-free optical method that tracks binding on a fibre tip over time.

The target of assay [7] is T7, IL-10 receptor 1 (IL-10R1), IL-10R …. Nature of the assay: BLI (Octet K2), IL-10R His-tag protein on AR2G sensor, fusion protein 62.5 to 1,000 nM. Here is the method:
as §3

For assay [8], the target named is anti-DNP mouse IgE (Sigma). Kind of assay: BLI (Octet K2), fusion protein on sensor, anti-DNP mouse IgE as analyte, third test. Here is the method: (§4) Specifically, 200 μl of D. W. was dispensed into a 96-well plate, and then an amine biosensor included in the kit was inserted to perform hydration for 10 minutes. Subsequently, after 200 μl of D. W. was additionally dispensed, EDC and NHS were mixed at 1:1 in an amount of 1/20 of the required sample amount and then diluted with D. W., and 200 μl of the resultant was dispensed into the 96-well plate. Next, the FcεRIα-modified IgG4 Fc protein and the FcεRIα-NTIG-IL-10Vm fusion protein were diluted to 10 μg/ml in a 10 mM acetate solution having a pH of 5.0, and then 200 μl of the resultant was added to the 96-well plate. After 200 μl of 1 M ethanolamine was added to the 96-well plate, the biosensor plate and the sample plate were placed in an Octet®-K2 instrument and measured. After the measurement was completed, 200 μl of a 1× kinetics buffer solution was added to the sample plate, and then a baseline was determined.

Assay [9] deals with anti-DNP mouse IgE (Sigma). Kind of assay: BLI (Octet K2), fusion protein on AR2G sensor, anti-DNP mouse IgE as analyte, mean of three tests. On the procedure: as §4
The next assay has as its target human IgE. Nature of the assay: BLI (Octet K2), fusion protein on AR2G sensor, human IgE as analyte.
The target of assay [10] is anti-DNP mouse IgE (Sigma). Kind of assay: BLI (Octet K2), fusion protein on AR2G sensor, anti-DNP mouse IgE as analyte, first test. Here is the method: as §4
Assay [11] addresses anti-DNP mouse IgE (Sigma). Kind of assay: BLI (Octet K2), fusion protein on AR2G sensor, anti-DNP mouse IgE as analyte, second test. Here is the method:
as §4

Assay [12] addresses anti-DNP mouse IgE (Sigma). Nature of the assay: BLI (Octet K2), fusion protein on AR2G sensor, anti-DNP mouse IgE as analyte, third test. Here is the method:
as §4

Assay [13] concerns the target anti-DNP mouse IgE (Sigma). Nature of the assay: BLI (Octet K2), fusion protein on sensor, anti-DNP mouse IgE as analyte, first test. Here is the method:
as §4

Assay [14] deals with anti-DNP mouse IgE (Sigma). Kind of assay: cell-based or functional assay.
In assay [15] the target is anti-DNP mouse IgE (Sigma). Kind of assay: BLI (Octet K2), fusion protein on sensor, anti-DNP mouse IgE as analyte, second test. Here is the method: as §4

T2 sequence (P55899 24-297 limits assumed, chain 1 of 2): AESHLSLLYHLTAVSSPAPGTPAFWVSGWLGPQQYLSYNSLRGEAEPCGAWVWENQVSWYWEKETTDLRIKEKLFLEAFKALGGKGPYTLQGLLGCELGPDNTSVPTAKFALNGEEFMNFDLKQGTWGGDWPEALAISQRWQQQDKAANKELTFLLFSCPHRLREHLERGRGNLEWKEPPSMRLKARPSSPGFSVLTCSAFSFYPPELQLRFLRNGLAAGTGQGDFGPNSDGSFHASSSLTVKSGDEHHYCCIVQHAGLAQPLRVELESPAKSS
T2 sequence (P61769 21-119 limits assumed, chain 2 of 2): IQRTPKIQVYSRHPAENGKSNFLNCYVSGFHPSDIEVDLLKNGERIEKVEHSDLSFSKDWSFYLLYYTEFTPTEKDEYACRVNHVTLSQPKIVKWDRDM
T1 sequence (P02745 23-245 limits assumed, chain 1 of 3): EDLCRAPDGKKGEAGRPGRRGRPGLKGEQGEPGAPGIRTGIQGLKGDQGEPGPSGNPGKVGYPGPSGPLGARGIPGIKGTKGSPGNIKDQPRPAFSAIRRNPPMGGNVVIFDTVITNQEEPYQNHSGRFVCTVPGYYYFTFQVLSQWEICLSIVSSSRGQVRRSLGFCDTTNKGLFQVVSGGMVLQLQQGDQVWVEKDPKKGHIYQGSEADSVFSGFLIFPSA
T1 sequence (P02746 28-253 limits assumed, chain 2 of 3): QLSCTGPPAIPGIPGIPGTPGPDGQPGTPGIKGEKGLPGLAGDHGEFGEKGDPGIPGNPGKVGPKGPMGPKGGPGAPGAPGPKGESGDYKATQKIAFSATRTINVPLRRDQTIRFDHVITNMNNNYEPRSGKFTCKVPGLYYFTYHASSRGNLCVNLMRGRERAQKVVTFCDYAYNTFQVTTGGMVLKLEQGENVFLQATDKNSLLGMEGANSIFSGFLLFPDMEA
T1 sequence (P02747 29-245 limits assumed, chain 3 of 3): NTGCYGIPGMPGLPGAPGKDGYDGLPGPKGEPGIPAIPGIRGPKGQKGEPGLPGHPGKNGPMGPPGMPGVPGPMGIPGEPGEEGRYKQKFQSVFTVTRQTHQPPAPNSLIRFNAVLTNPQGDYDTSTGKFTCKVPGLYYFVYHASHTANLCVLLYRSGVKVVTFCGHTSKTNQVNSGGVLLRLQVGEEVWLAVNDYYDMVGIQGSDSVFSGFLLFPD
Chain of FcγRIIIb (O75015 17-200 limits assumed): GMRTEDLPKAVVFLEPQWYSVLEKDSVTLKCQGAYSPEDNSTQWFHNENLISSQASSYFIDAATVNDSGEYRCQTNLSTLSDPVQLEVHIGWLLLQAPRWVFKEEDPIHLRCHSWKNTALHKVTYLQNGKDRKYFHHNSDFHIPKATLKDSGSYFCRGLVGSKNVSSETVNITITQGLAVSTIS
Procedure for complement C1q: Subsequently, 100 μl of each diluted sample was loaded into each well and reacted overnight at 4° C. Next, washing was performed three times by adding 300 μl of a washing buffer solution to the plate each time, 200 μl of a blocking buffer solution (2% BSA/PBS) was added to each well and reacted at room temperature for 2 hours. 300 μl of the washing buffer solution was added to the plate, then washing was repeatedly performed three times, an anti-C1q antibody was diluted with an assay buffer solution to 10, 3, 1, 0.3, and 0.1 μg/ml by ⅓, and mixed (duplication) in an amount of 50 μl in each well, and then the resultant was reacted at room temperature for 2 hours. Then, the washing buffer solution was mixed in the plate by 300 μl each time and washing was repeatedly performed eight times. A C1q-HRP conjugate was diluted 400-fold, and 50 μl of the resultant was added to each well and reacted at room temperature for 1 hour. The washing buffer solution was added to the plate by 300 μl each time, washing was repeatedly performed eight times, 50 μl of TMB as a substrate was mixed, and the resultant was reacted at room temperature. When the color development reaction appeared in blue, 50 μl of a stop solution was added to each well to stop the reaction, and then optical density was measured using a microplate reader set at 450 nm.

B1: PG-11 (GLP-1E-NTIG) (Fc fusion)
chain: HGEGTFTSDVSSYLEGQAAKEFIAWLVKGGPSSGAPPPSGGGGSGGGGSGGGGSEKEKEEQEERTHTCPPCPSHTQPLGVFLFPPKPKDQLMISRTPEVTCVVVDVSQEDPEVQFNWYVDGVEVHNAKTKPREEQFNSTYRVVSVLTVLHQDWLNGKEYKCKVSNKGLPSSIEKTISKAKGQPREPQVYTLPPSQEEMTKNQVSLTCLVKGFYPSDIAVEWESNGQPENNYKTTPPVLDSDGSFFLYSRLTVDKSRWQEGNVFSCSVLHEALHNHYTQKSLSLSLGK
notes: Produced in ExpiCHO and purified on protein A. The hinge is said in general to dimerise the fusion, but no copy number is stated for PG-11; also called PG-II
What is called Kd is a measure of binding affinity in units of concentration. Take B1: the binding result was “no binding (tested: 10.0 µg/mL)” with complement C1q; “no binding” in [2]; “no binding” in assay [3]; “no binding” in the assay with FcγRIIIb; “no binding” in the assay with FcγRIIb; “no binding” with FcγRIIa. Moreover, the dissociation constant (Kd) came out at 0.256 µM in assay [1] and 0.397 µM in [5]. Moreover, the “fold affinity against Rituximab” value in assay [4] is around 9.3 fold. For the same molecule, in [4], the “fold affinity against Trulicity” value was around 5.3 fold.

B2: PG-088m (NTIG-IL-10Vm) (Fc fusion)
chain: SHTQPLGVFLFPPKPKDQLMISRTPEVTCVVVDVSQEDPEVQFNWYVDGVEVHNAKTKPREEQFNSTYRVVSVLTVLHQDWLNGKEYKCKVSNKGLPSSIEKTISKAKGQPREPQVYTLPPSQEEMTKNQVSLTCLVKGFYPSDIAVEWESNGQPENNYKTTPPVLDSDGSFFLYSRLTVDKSRWQEGNVFSCSVLHEALHNHYTQKSLSLSLGAAGSGGGGGSGGGGSGGGGSSPGQGTQSENSCTHFPGNLPNMLRDLRDAFSRVKTFFQMKDQLDNLLLKESLLEDFKGYLGCQALSEMIQFYLEEVMPQAENQDPDAKAHVNSLGENLKTLRLRLRRCHRFLPCENGGSGGSGGSKSKAVEQVKNAFNKLQEKGIYKAMSEFDIFINYIEAYMTMKIRN
notes: also called monomeric IL-10 variant fusion protein
As usually defined, the koff is a measure of how fast the partners let go of each other. Lower therefore signals slow dissociation. The term kon denotes the second-order rate constant of association. On to B2, for which, in assay [6], the “fold KD against the dimeric IL-10 fusion protein of Example 2-3” value was around 3 fold, the koff was 0.0006 s⁻¹ and the kon amounted to 20600 M⁻¹ s⁻¹. Moreover, in [7], the Kd was determined as 0.0292 µM.

B3: PG-088 (NTIG-IL-10V) (Fc fusion)
chain: GGGGSGGGGSGGGGSEPKSSDKTHTCPPCPSHTQPLGVFLFPPKPKDQLMISRTPEVTCVVVDVSQEDPEVQFNWYVDGVEVHNAKTKPREEQFNSTYRVVSVLTVLHQDWLNGKEYKCKVSNKGLPSSIEKTISKAKGQPREPQVYTLPPSQEEMTKNQVSLTCLVKGFYPSDIAVEWESNGQPENNYKTTPPVLDSDGSFFLYSRLTVDKSRWQEGNVFSCSVLHEALHNHYTQKSLSLSLGKAAGSGGGGGSGGGGSGGGGSSPGQGTQSENSCTHFPGNLPNMLRDLRDAFSRVKTFFQMKDQLDNLLLKESLLEDFKGYLGCQALSEMIQFYLEEVMPQAENQDPDAKAHVNSLGENLKTLRLRLRRCHRFLPCENKSKAVEQVKNAFNKLQEKGIYKAMSEFDIFINYIEAYMTMKIRN
notes: also called dimeric IL-10 variant fusion protein
B3: in assay [6], the koff worked out at 0.0008 s⁻¹ and the kon was 71100 M⁻¹ s⁻¹. This molecule gave a Kd in assay [7] of 0.0111 µM.

B4: PG-110 (FcεRIα-NTIG-IL-10Vm) (Fc fusion)
chain: VPQKPKVSLNPPWNRIFKGENVTLTCNGNNFFEVSSTKWFHNGSLSEETNSSLNIVNAKFEDSGEYKCQHQQVNESEPVYLEVFSDWLLLQASAEVVMEGQPLFLRCHGWRNWDVYKVIYYKDGEALKYWYENHNISITNATVEDSGTYYCTGKVWQLDYESEPLNITVIKAPREKYWLQGGGGSGGGGSGGGGSEPKSSDKTHTCPPCPSHTQPLGVFLFPPKPKDQLMISRTPEVTCVVVDVSQEDPEVQFNWYVDGVEVHNAKTKPREEQFNSTYRVVSVLTVLHQDWLNGKEYKCKVSNKGLPSSIEKTISKAKGQPREPQVYTLPPSQEEMTKNQVSLTCLVKGFYPSDIAVEWESNGQPENNYKTTPPVLDSDGSFFLYSRLTVDKSRWQEGNVFSCSVLHEALHNHYTQKSLSLSLGAAGSGGGGGSGGGGSGGGGSSPGQGTQSENSCTHFPGNLPNMLRDLRDAFSRVKTFFQMKDQLDNLLLKESLLEDFKGYLGCQALSEMIQFYLEEVMPQAENQDPDAKAHVNSLGENLKTLRLRLRRCHRFLPCENGGSGGSGGSKSKAVEQVKNAFNKLQEKGIYKAMSEFDIFINYIEAYMTMKIRN
notes: Produced in a CHO DG44 cell line
Consider B4, for which the koff in assay [8] came to 4.82e-05 s⁻¹; in the assay with human IgE, 7.59e-05 s⁻¹; in [13], 3.4e-05 s⁻¹; in assay [15], 4.06e-05 s⁻¹. For the same molecule, the kon in assay [8] is 139000 M⁻¹ s⁻¹; with human IgE, 219000 M⁻¹ s⁻¹; in assay [13], 152000 M⁻¹ s⁻¹; in assay [15], 144000 M⁻¹ s⁻¹. Also, the dissociation constant Kd stood at 0.000284 µM in assay [9]; 0.000346 µM with human IgE; 0.000224 µM in assay [10]; 0.000282 µM in assay [11]; 0.000346 µM in assay [12]. Also, the “IC50 (nM), β-hexosaminidase release from mouse marrow-derived mast cells, column headed 'Fourth test' (equals the mean of the three tests)” value in assay [14] was 16.9 nM. Moreover, in assay [14], the “IC50 (nM), β-hexosaminidase release from mouse marrow-derived mast cells, first test” value was found to be 21.6 nM. Moreover, the “IC50 (nM), β-hexosaminidase release from mouse marrow-derived mast cells, second test” value in assay [14] came to 14.8 nM. Also, the “IC50 (nM), β-hexosaminidase release from mouse marrow-derived mast cells, third test” value in assay [14] stood at 14.4 nM.
